Experimental data as given in patent US20050209548A1, “Electroporation-mediated intravascular delivery” (priority 2004, published 2005).

What was measured:
[1] = rabbit, in vivo
Description: Experiments were performed in 12 New Zealand white rabbits of either sex (2.5-3.4 kg) preanesthetized with xylazine (2 mg.kg^−1) and ketamine (50 mg.kg^−1) intramuscularly and an injection of alphachloralose (30 mg.kg^−1) intraveneously through an ear vein. A supplemental dose of 10 mg.kg^−1 chloralose was given every hour. The anesthetic state was maintained such that the toe-pinching reflex and corneal reflexes were absent.
Animals were placed supine and strapped on the surgical table. The trachea was intubated to allow spontaneous breathing of ambient air. Electrocardiogram (EKG) of the animal was obtained by using Lead II in differential mode. End-tidal CO2 tension was monitored by a CO2 analyzer (Datex, Puritan-Bennett). Body temperature was kept at the 38-38.5 °C range by radiant heating.
A longitudinal incision in the cervical region was made in the rabbit to expose the common carotid arteries on both sides. Approximately 6 cm in length of carotid artery on each side was isolated from the surrounding tissue and vagosympathetic nerve trunk. The caudal end of the carotid artery on one side was transiently occluded with a vascular clip at the junction between the neck and chest. A small incision was then made at the rostral end of the artery (just below transversus vein) to push an electroporator catheter (FIG. 1) through this incision. […]
Lead II EKG Nvas differentially amplified and the output was continuously monitored on an osciloscope (Tektronix) and recorded on a Gould TA-2000 thermal-array recorder for evaluation. […]
Arterial segments were subsequently freeze sectioned (10 micron) transversely. Microscopic slides containing arterial sections were observed under a Zeiss confocal laser (argon-krypton) scan microscope (LSM 410 Invert), (excitation at 495 nm and emission at 515 nm) to obtain video image (magnification 40 times) of fluorescence. Subsequently, control and test samples were compared by analyzing fluorescence intensity by Line Intensity Scan at different depths of the arterial wall using commercially obtained software (Image 1: Universal Imaging Corp.). […]

[2] = pig, in vivo; cited from earlier work
[3] = Molecular Probe, Inc.; cited from earlier work
[4] = rabbit, in vivo; remark: listed apart in the source
Description: This catheter was used in the following experiment. Three rabbits weighing 4 Kg were anesthetized with xylazine (0.1 ml/kg) and ketamine (0.5 ml/1 g i.m.). General anesthesia was maintained with α-chloralose (30 mg/Kg. i.v.). […] A femoral artery in the leg on one side of the rabbit was exposed. A 5F sheath was introduced and the catheter was pushed under fluoroscopic guidance to the right or left carotid artery. […] Radiocontrast fluid was infused (panel b) allowing confirmation of the catheter position, the patient artery, the balloon and the built-in radiopaque marker, as well as presence of the dye in the side branches. After balloon inflation, (panel c) 1 ml of fluoresceinated heparin (concentration 1 mg dissolved in 2 ml: biological activity of heparin as per manufacturer: 167 U) was infused between the occluded segment via the drug port and the artery pulsed immediately with the balloons in the inflated condition. Initially, field parameters tested were ˜60V and four pulses each of ˜600 μs pulse length. […] In a subsequent experiment, voltage and pulse length were changed to 57V and 22 ms, respectively. As before, four pulses were delivered from ECM 600 pulse exponential generator. […] In addition, fluorescence due to collagen and elastin was also present.

heparin
duration of sustained delivery in vessel [1]: at least 12 hours | location in the vessel wall [1]: mostly present in the media but also in the intima | washout of local delivery from vessel [1]: completely washes out in two hours

hirudin
drug washed out of the vessel [2]: 80% | level in vessel compared with passive delivery [2]: the level is the same as for the passive delivery

fluoresceinated heparin [F-heparin]
activity [3]: 167 unit/mg | penetration and uptake after autofluorescence correction and subtraction of control artery fluorescence [4]: deep penetration and uptake
